The target of assay [1] is T1, recombinant mannan-binding lectin (UniProt P11226 21-248).
T1 construct: Oligomeric collectin; also called rMBL; MBL
In words: affinity chromatography on rMBL-coupled beads.

The target of assay [2] is T2, BSA (UniProt P02769 25-607).
T2 construct: also called BSA-coated surface
In words: SPR (BIAcore 3000), BSA-coated surface. The source says:
Using SPR we determined the strength of the interaction between MAp44 and MBL, and compared it to that of MASP-3 and MBL. The purity of the rMBL has been reported before and the rMAp44 and rMASP-3 preparations were deemed pure by silver staining of SDS-PAGE gels (FIG. 4A). MBL was coupled to SPR chips at two different densities. An SPR chip, activated and blocked, was used for subtraction of the bulk refractive index background. A BSA-coated surface served as an extra background control, which gave no higher signal than the blank surface for both MASP-3 and MAp44. […] The measurements at the other coupling density of MBL were in agreement for both MASP-3 and MAp44. The calculated KDs were similar to the 0.8 nM reported for the binding of MASP-2 to MBL.
The SPR experiments were similar to those reported (7, 8). Using a BIAcore 3000 instrument (GE Healthcare®), binding of either rMASP-3 or rMAp44 was measured on 10940 RU of rMBL immobilized on a CM5 sensor chip (30 μg rMBL/ml used for derivatization), at a flow rate of 5 μl/min. Equivalent volumes of rMASP-3 and rMAp44 were injected at concentrations from 1 nM to 30 nM. Data were analyzed by global fitting to a 1:1 Langmuir binding model for several concentrations simultaneously using the BIAevaluation 4.1 software (GE Healthcare®).
In general terms: SPR reads the build-up and loss of mass on a sensor chip optically.

T2 sequence (P02769 25-607 limits assumed): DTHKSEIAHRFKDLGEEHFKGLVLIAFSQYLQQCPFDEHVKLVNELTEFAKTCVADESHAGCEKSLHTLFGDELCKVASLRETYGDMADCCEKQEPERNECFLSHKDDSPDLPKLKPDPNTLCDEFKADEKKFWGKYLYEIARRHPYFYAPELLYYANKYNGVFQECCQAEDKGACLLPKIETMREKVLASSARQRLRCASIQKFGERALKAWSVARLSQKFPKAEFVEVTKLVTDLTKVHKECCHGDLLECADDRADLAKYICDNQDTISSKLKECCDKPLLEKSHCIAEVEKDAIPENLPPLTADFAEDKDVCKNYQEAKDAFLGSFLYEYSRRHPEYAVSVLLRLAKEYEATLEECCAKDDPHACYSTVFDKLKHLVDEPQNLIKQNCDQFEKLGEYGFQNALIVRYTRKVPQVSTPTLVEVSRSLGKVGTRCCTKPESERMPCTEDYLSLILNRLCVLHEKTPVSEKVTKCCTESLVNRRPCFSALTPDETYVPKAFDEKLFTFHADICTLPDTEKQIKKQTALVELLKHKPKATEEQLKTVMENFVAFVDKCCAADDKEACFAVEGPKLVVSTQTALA
T1 sequence (P11226 21-248 limits assumed): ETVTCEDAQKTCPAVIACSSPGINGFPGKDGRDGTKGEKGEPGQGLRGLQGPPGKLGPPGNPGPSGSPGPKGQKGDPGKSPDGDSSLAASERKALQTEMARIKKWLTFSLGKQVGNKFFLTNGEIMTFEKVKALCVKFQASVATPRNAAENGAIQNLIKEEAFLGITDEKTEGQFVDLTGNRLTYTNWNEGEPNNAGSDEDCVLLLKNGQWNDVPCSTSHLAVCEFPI

B1: recombinant MAp19 (other, UniProt O00187-2 16-185, looked up)
chain: TPLGPKWPEPVFGRLASPGFPGEYANDQERRWTLTAPPGYRLRLYFTHFDLELSHLCEYDFVKLSSGAKVLATLCGQESTDTERAPGKDTFYSLGSSLDITFRSDYSNEKPFTGFEAFYAAEDIDECQVAPGEAPTCDHHCHNHLGGFYCSCRAGYVLHRNKRTCSEQSL
notes: also called rMAp19; rMAP19
Turning to B1, the binding result in assay [1] is recorded as “binds”.

B2: recombinant MAp44 (mannan-binding lectin-associated protein of 44 kDa) (other)
chain: HTVELNNMFGQIQSPGYPDSYPSDSEVTWNITVPDGFRIKLYFMHFNLESSYLCEYDYVKVETEDQVLATFCGRETTDTEQTPGQEVVLSPGSFMSITFRSDFSNEERFTGFDAHYMAVDVDECKEREDEELSCDHYCHNYIGGYYCSCRFGYILHTDNRTCRVECSDNLFTQRTGVITSPDFPNPYPKSSECLYTIELEEGFMVNLQFEDIFDIEDHPEVPCPYDYIKIKVGPKVLGPFCGEKAPEPISTQSHSVLILFHSDNSGENRGWRLSYRAAGNECPELQPPVHGKIEPSQAKYFFKDQVLVSCDTGYKVLKDNVEMDTFQIECLKDGTWSNKIPTCKKNEIDLESELKSEQVTE
notes: Made by transient expression of the MAp44 cDNA (imaGenes clone IRAKp961F1682Q) in 293F cells and purified on rMBL-coupled beads; also called rMAp44; rMAP44
For the molecule B2, the binding result in assay [2] is “no binding”.

The values above are taken from patent US20120122107A1 (AARHUS UNIVERSITET, published 2012).
